Values of other authors as cited in publication PMC9900175.

Molecular target: CD200R (Homo sapiens) (UniProt Q8TD46)
Sequence of UniProt Q8TD46 (Q8TD46 25-265): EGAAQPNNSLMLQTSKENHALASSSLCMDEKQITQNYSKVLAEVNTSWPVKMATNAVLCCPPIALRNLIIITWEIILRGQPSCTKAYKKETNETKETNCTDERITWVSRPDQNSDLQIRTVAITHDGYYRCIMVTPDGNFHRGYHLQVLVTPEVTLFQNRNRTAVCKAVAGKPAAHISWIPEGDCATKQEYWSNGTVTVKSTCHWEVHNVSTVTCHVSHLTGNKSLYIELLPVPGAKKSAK

CD200 (from UniProt P41217)
Kd: 0.5 µM
